Here are results for 4 proteins from PMC8969154, “Deglutarylation of glutaryl-CoA dehydrogenase by deacylating enzyme SIRT5 promotes lysine oxidation in mice” (The Journal of Biological Chemistry, 2022).

Data set [1] deals with the molecule itself. Kind of data set: SEC; Superdex 200 Increase 10/300 GL, 25 mM Hepes pH 7.8, 30 mM NaCl, 0.75 ml/min; column calibrated with standard proteins; comparison of unmodified and modified GCDH told as data not shown.
Data set [2] deals with the molecule itself. The data set can be described thus: native gel or EMSA; BN-PAGE (NativePAGE 4-16% Bis-Tris) of liver mitochondria solubilised in 2% n-dodecyl-β-D-maltoside, 0.5% G-250; immunoblot for GCDH; SIRT5WT and SIRT5KO mice, fed or 24 h fasted; GCDHKO mitochondria as control for the band.

B1: human recombinant GCDH protein (hGCDH-6XHIS), unmodified (enzyme, UniProt Q92947 45-438, looked up)
chain: RPEFDWQDPLVLEEQLTTDEILIRDTFRTYCQERLMPRILLANRNEVFHREIISEMGELGVLGPTIKGYGCAGVSSVAYGLLARELERVDSGYRSAMSVQSSLVMHPIYAYGSEEQRQKYLPQLAKGELLGCFGLTEPNSGSDPSSMETRAHYNSSNKSYTLNGTKTWITNSPMADLFVVWARCEDGCIRGFLLEKGMRGLSAPRIQGKFSLRASATGMIIMDGVEVPEENVLPGASSLGGPFGCLNNARYGIAWGVLGASEFCLHTARQYALDRMQFGVPLARNQLIQKKLADMLTEITLGLHACLQLGRLKDQDKAAPEMVSLLKRNNCGKALDIARQARDMLGGNGISDEYHVIRHAMNLEAVNTYEGTHDIHALILGRAITGIQAFTASK
notes: hGCDH-6XHIS 'modified from UniProtKB - Q92947'; printed residue numbers count on the full-length human GCDH protein; also called recombinant human GCDH; unmodified GCDH
For the protein B1, in data set [1], the “stoichiometry N” value turned out to be 4.

B2: chemically succinylated human recombinant GCDH (succinyl-GCDH) (enzyme, UniProt Q92947 45-438, looked up)
chain: B1 chain
modifications: succinyl-lysine by chemical succinylation: 11 sites found (shown in Fig. S3D, not given)
notes: as the chain of m2, chemically succinylated; printed residue numbers count on the full-length human GCDH protein; also called succinylated GCDH; modified GCDH
In the case of B2, the “stoichiometry N” value in data set [1] is 4.

B3: chemically glutarylated human recombinant GCDH (glutaryl-GCDH) (enzyme, UniProt Q92947 45-438, looked up)
chain: B1 chain
modifications: glutaryl-lysine by chemical glutarylation: 10 sites found; heavily glutarylated K163, K170, K202, K240, K253, K357, K371, K377 (numbers of full-length human GCDH)
notes: as the chain of m2, chemically glutarylated; printed residue numbers count on the full-length human GCDH protein; also called glutarylated GCDH; modified GCDH
Turning to B3, the “stoichiometry N” value in data set [1] came to 4.

B4: glutaryl-CoA dehydrogenase (GCDH), endogenous, mouse liver mitochondria (enzyme, mouse (endogenous in liver mitochondria), UniProt Q60759 45-438, looked up)
chain: RPVFDWKDPLILEEQLTADEKLIRDTFRNYCQERLMSRILLANRNEVFHRDIVYEMGELGVLGPTIKGYGCAGVSSVAYGLLTRELERVDSGYRSMMSVQSSLVMHPIYTYGSEEQRQKYLPGLAKGELLGCFGLTEPNHGSDPGGMETRARHNPSNQSYTLSGTKTWITNSPVADLFIVWARCEDNCIRGFILEKGMRGLSAPRIEGKFSLRASATGMIIMDSVEVPEENVLPNVSSLAGPFGCLNTARYGITWGVLGAAEFCLHTARQYALDRIQFGVPLARNQLVQKKLADMLTEITLGLHACLQLGRLKDQDKATPEMVSMLKRNNCGKALDIARQARDILGGNGISDEYHVIRHAMNLEAVNTYEGTHDIHALILGRAITGIQAFTVGK
notes: glutaryl-CoA dehydrogenase, mouse, endogenous in liver mitochondria of SIRT5WT and SIRT5KO mice (GCDHKO mitochondria used to identify the band); Glutarylation state differs with genotype and feeding state (higher in starved SIRT5KO liver); also called GCDH tetramer; source: endogenous, mouse liver mitochondria solubilised in 2% n-dodecyl-β-D-maltoside
Take B4: the “stoichiometry N” value in data set [2] was found to be 4.
